US20110212106A1, “HIV-1 NE[…] USES THEREOF” (priority 2010, published 2011)
Like-named read-outs stand apart in the source and are kept apart here.

What was measured:
[1] = test system: HIV-1 pseudoviruses in HOS-CD4-CCR5 cells
Procedure: To measure the neutralization activity of the isolated mAbs, luciferase-encoding virions pseudotyped with the desired HIV-1 Env proteins were used in a single-cycle infectivity assay, as previously described (Gorny M K, et al. (2002) J Virol 76: 9035-9045). Briefly, appropriate dilutions of the virion-containing culture supernatants were pre-incubated at 37° C. for 1 h with mAbs at various concentrations. The virus-mAb mixtures were added to HOS-CD4-CCR5 cells and incubated for 3 days at 37° C. A similar protocol was used for supernatants screening using TZM-bl cells (Li M, et al. (2006) J Virol 80: 11776-11790). The cells were then lysed with Britelite reagent (Perkin-Elmer) and the relative light units in the cell lysates were determined on a luminometer microplate reader (Veritas, Turner Biosystems). The 50% inhibitory dose (IC50) was defined as the sample concentration at which relative luminescence units were reduced 50% compared to virus control wells.
The neutralizing activity of the mAbs was measured using 20 pseudotyped HIV-1 primary isolate envs characterized by different sensitivity to neutralization (Li M, et al. (2005) J Virol 79: 10108-10125; Li M, et al. (2006) J Virol 80: 11776-11790). The mAbs were tested at a fixed concentration (100 μg/ml) in the luciferase based neutralization assay using HOS-CD4.R5 as target cells.

HIV-1 isolates = assay: Neutralization of HIV-1 isolates (TZMbl-based or HOS-based assay, not specified); type: cell-based
From the text: FIG. 5. Epitope mapping of V3-specific mAbs by linear and circular peptide scanning. (A) Eight gp120-specific mAbs were mapped with linear and cyclic peptides to the V3 region. Shown is the HIV-1 isolate used for the mapping, the minimal epitope, the binding breadth expressed as number of recombinant Env proteins out of the 16 tested, and the fraction of isolates neutralized in the HOS and TZMbl-based neutralization assays, respectively. (B) Alignment of the region corresponding to the epitope recognized by mAb HGN194 in 44 HIV-1 isolates. Co-receptor binding residues are bold. Highlighted in grey are the isolates neutralized by HGN194 either in the TZMbl-based or in the HOS-based assays. […]
To measure the neutralization activity of the isolated mAbs, luciferase-encoding virions pseudotyped with the desired HIV-1 Env proteins were used in a single-cycle infectivity assay, as previously described (Gorny M K, et al. (2002) J Virol 76: 9035-9045). […] The cells were then lysed with Britelite reagent (Perkin-Elmer) and the relative light units in the cell lysates were determined on a luminometer microplate reader (Veritas, Turner Biosystems). […]

[2] = In vivo administration in macaques
From the text: Specificity: V3 loop. Pepscan analysis identified the epitope which is very conserved in the tip of V3 of gp120. It includes 4 residues involved in co-receptor (CCR5 or CXCR4) binding. Also HGN194 has accessibility problems (Fab fragment and single chain antibody may work better). Neutralizes most Tier 1 isolates (they are more sensitive isolates since the epitope is more accessible).

gp120 binding to sCD4 = details: inhibition of sCD4 binding
Procedure: Shown is mean±SD of triplicates.
The ability of mAbs to inhibit binding of sCD4 to gp120 or gp140 was evaluated by ELISA. Serial dilutions of mAbs were pre-incubated with gp120 (or gp140) and added to plates pre-coated with sCD4. After 1 h plates were washed and incubated with sheep polyclonal antibody D7324 (Aalto Bio-Reagents) followed by washing, incubation with AP-conjugated rabbit anti-sheep IgG antibody (Abcam, Cambridge, UK), extensive washing and detection using p-NPP (Sigma) as substrate.

[3] = test system: HIV-1 pseudoviruses in TZM-bl cells

B1: HGN194: human mAb binding the V3 crown of gp120; VH SEQ ID NO: 45, VL SEQ ID NO: 46 (antibody, listed as Homo sapiens, V domains shown)
VH: EVQLVQSGAEVKKPGESLKISCYGSGYNFNDYWIGWVRQMPGKGLEWMGMIYPDDSDTKYSAAFEGQVTLSADKSISTAYLQWTSLRASDTATYYCARLDGDYADFDSWGQGTLVTVSS
VL: QSVLTQPPSVSAAPGQKVTISCSGTNSNLGDKFVSWYQQLPGTAPRLLIYDNDKRPSGIPDRFSGSKSGASATLAITGLQTGDEADYYCGTWDNSLSALFGGGTKLTVL
Question: Which “Neutralization HOS (number of isolates neutralized)” value ([1]; HOS-based assay, isolates neutralized/isolates tested) does the source give for B1 here?
Answer: Its value is 11/20.

Question: What about the “pseudoviruses neutralized out of the 20 pseudoviruses” value ([1]; mAb at fixed concentration 100 μg/ml) of the same molecule?
Answer: The value was 11.

Question: And the “pseudoviruses neutralized in the HOS-based assay” value ([1]; neutralized/tested)?
Answer: The value was 11/20.

Question: What about the IC50 (HIV-1 isolates; isolate 93MW965.26) of the same molecule?
Answer: Its IC50 is less than 0.02 µg/mL.

Question: What about the neutralization (HIV-1 isolates; isolates Du422.1, ZM197M.PB7 and Du172.17) of the same molecule?
Answer: Its neutralization is “not neutralized”.

Question: What about the efficacy in macaques [2] of the same molecule?
Answer: Its efficacy in macaques is “complete protection”.

Question: And the “Cross-competition with: sCD4” value (gp120 binding to sCD4)?
Answer: Its value is “− (−, <50% inhibition)”.

Question: And the “Cross-competition with: 2G12” value (gp120; inhibition of biotinylated mAb 2G12 binding to immobilized gp120)?
Answer: The value was “− (−, <50% inhibition)”.

Question: What about the “Cross-competition with: HGA9” value (gp120; inhibition of biotinylated mAb HGA9 binding to immobilized gp120) of the same molecule?
Answer: The value was “+ (+,90-100% inhibition)”.

Question: What about the “Cross-competition with: HJ16” value (gp120; inhibition of biotinylated mAb HJ16 binding to immobilized gp120) of the same molecule?
Answer: The value was “− (−, <50% inhibition)”.

Question: What about the “Cross-competition with: HR10” value (gp120; inhibition of biotinylated mAb HR10 binding to immobilized gp120) of the same molecule?
Answer: Its value is “+ (+,90-100% inhibition)”.

Question: And the “Cross-competition with: b12” value (gp120; inhibition of biotinylated mAb b12 binding to immobilized gp120)?
Answer: The value was “− (−, <50% inhibition)”.

Question: And the “Percentage of HIV-1 isolates neutralized” value ([3]; All (92))?
Answer: Its value is 21%.

Question: And the “Neutralization TZM-bl (number of isolates neutralized)” value ([3]; TZM-bl based assay, isolates neutralized/isolates tested)?
Answer: The value was 19/92.

Question: What about the “Percentage of HIV-1 isolates neutralized” value ([3]; Tier 1 (10)) of the same molecule?
Answer: The value was 100%.

Question: What about the “Percentage of HIV-1 isolates neutralized” value ([3]; Tier 1 + Tier 2, Clade A (8)) of the same molecule?
Answer: Its value is 38%.

Question: And the “Percentage of HIV-1 isolates neutralized” value ([3]; Tier 1 + Tier 2, Clade AD (1))?
Answer: Its value is 0%.

Question: And the “Percentage of HIV-1 isolates neutralized” value ([3]; Tier 1 + Tier 2, Clade AG (16))?
Answer: The value was 0%.

Question: What about the “Percentage of HIV-1 isolates neutralized” value ([3]; Tier 1 + Tier 2, Clade B (29)) of the same molecule?
Answer: Its value is 24%.

Question: And the “Percentage of HIV-1 isolates neutralized” value ([3]; Tier 1 + Tier 2, Clade BC (11))?
Answer: The value was 0%.

Question: What about the “Percentage of HIV-1 isolates neutralized” value ([3]; Tier 1 + Tier 2, Clade C (26)) of the same molecule?
Answer: The value was 23%.

Question: And the “Percentage of HIV-1 isolates neutralized” value ([3]; Tier 1 + Tier 2, Clade G (1))?
Answer: The value was 0%.

Question: What about the “Percentage of HIV-1 isolates neutralized” value ([3]; Tier 2 (82)) of the same molecule?
Answer: Its value is 11%.

Question: And the “Percentage of HIV-1 isolates neutralized” value ([3]; Tier 2, Clade A (5))?
Answer: The value was 20%.

Question: What about the “Percentage of HIV-1 isolates neutralized” value ([3]; Tier 2, Clade AD (1)) of the same molecule?
Answer: The value was 0%.

Question: What about the “Percentage of HIV-1 isolates neutralized” value ([3]; Tier 2, Clade AG (16)) of the same molecule?
Answer: The value was 0%.

Question: What about the “Percentage of HIV-1 isolates neutralized” value ([3]; Tier 2, Clade B (24)) of the same molecule?
Answer: Its value is 8%.

Question: What about the “Percentage of HIV-1 isolates neutralized” value ([3]; Tier 2, Clade BC (11)) of the same molecule?
Answer: Its value is 0%.

Question: What about the “Percentage of HIV-1 isolates neutralized” value ([3]; Tier 2, Clade C (24)) of the same molecule?
Answer: The value was 17%.

Question: What about the “Percentage of HIV-1 isolates neutralized” value ([3]; Tier 2, Clade G (1)) of the same molecule?
Answer: The value was 0%.

Question: And the “pseudoviruses neutralized in the TZM-bl based assay” value ([3]; neutralized/tested)?
Answer: Its value is 19/92.
